Results as given in publication PMC5308906 (2016).
No end group written: not given here.

Biological target: T1, ψIRS1-Cargo V5 (Homo sapiens, UniProt Q05655, not fully specified)
T1 chain: EKARLSYS
Experiment: AGILE Dev Kit binding assay

B1: θPKC (protein)
chain: MSPFLRIGLSNFDCGSCQSCQGEAVNPYCAVLVKEYVESENGQMYIQKKPTMYPPWDSTFDAHINKGRVMQIIVKGKNVDLISETTVELYSLAERCRKNNGKTEIWLELKPQGRMLMNARYFLEMSDTKDMNEFETEGFFALHQRRGAIKQAKVHHVKCHEFTATFFPQPTFCSVCHEFVWGLNKQGYQCRQCNAAIHKKCIDKVIAKCTGSAINSRETMFHKERFKIDMPHRFKVYNYKSPTFCEHCGTLLWGLARQGLKCDACGMNVHHRCQTKVANLCGINQKLMAEALAMIESTQQARCLRDTEQIFREGPVEIGLPCSIKNEARPPCLPTPGKREPQGISWESPLDEVDKMCHLPEPELNKERPSLQIKLKIEDFILHKMLGKGSFGKVFLAEFKKTNQFFAIKALKKDVVLMDDDVECTMVEKRVLSLAWEHPFLTHMFCTFQTKENLFFVMEYLNGGDLMYHIQSCHKFDLSRATFYAAEIILGLQFLHSKGIVYRDLKLDNILLDKDGHIKIADFGMCKENMLGDAKTNTFCGTPDYIAPEILLGQKYNHSVDWWSFGVLLYEMLIGQSPFHGQDEEELFHSIRMDNPFYPRWLEKEAKDLLVKLFVREPEKRLGVRGDIRQHPLFREINWEELERKEIDPPFRPKVKSPFDCSNFDKEFLNEKPRLSFADRALINSMDQNMFRNFSFMNPGMERLIS
Kd: 200 nM
